# Assay results published in patent US20230167164A1 (IMMUNOWAKE, published 2023).
# Tests used:
# CD8 on CD8+ T cells = target: T1, CD8 on CD8+ T cells (human, UniProt P01732 22-235); test: FACS on CD8+ T cells
# T1 construct: whole, on cells
# [1] = target: human IL-12 receptor complex (human, UniProt P42701 24-662; Q99665 24-862); test: cell-based or functional assay
# IL-23 receptor complex = IL-23 receptor complex (UniProt P42701 24-662; Q5VWK5 24-629, limits assumed); test: cell-based or functional assay
# Chain of IL-23 receptor complex (Q5VWK5 24-629 limits assumed, chain 2 of 2, other chains not shown): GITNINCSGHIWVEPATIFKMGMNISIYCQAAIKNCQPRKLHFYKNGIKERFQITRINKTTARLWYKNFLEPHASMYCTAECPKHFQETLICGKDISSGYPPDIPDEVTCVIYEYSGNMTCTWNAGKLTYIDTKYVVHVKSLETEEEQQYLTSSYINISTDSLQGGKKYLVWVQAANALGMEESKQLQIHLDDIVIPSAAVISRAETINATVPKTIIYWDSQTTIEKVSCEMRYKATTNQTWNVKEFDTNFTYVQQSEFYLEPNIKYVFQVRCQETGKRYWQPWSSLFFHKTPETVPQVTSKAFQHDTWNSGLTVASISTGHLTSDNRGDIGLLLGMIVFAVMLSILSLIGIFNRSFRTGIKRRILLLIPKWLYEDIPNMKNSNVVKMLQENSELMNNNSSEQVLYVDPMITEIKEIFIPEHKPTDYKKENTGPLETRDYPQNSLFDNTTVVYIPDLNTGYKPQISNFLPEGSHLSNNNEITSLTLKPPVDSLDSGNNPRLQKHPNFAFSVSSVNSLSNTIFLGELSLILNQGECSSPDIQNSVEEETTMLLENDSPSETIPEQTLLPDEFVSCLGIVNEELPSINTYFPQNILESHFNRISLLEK
# T1 sequence (P01732 22-235): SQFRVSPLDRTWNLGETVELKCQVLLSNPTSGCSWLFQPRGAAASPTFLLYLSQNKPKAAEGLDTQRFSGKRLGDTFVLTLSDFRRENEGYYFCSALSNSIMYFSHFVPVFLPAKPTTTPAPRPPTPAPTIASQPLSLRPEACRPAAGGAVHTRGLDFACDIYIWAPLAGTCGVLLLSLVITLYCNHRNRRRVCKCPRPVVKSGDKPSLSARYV
# Chain of human IL-12 receptor complex (Q99665 24-862, chain 2 of 2, other chains not shown): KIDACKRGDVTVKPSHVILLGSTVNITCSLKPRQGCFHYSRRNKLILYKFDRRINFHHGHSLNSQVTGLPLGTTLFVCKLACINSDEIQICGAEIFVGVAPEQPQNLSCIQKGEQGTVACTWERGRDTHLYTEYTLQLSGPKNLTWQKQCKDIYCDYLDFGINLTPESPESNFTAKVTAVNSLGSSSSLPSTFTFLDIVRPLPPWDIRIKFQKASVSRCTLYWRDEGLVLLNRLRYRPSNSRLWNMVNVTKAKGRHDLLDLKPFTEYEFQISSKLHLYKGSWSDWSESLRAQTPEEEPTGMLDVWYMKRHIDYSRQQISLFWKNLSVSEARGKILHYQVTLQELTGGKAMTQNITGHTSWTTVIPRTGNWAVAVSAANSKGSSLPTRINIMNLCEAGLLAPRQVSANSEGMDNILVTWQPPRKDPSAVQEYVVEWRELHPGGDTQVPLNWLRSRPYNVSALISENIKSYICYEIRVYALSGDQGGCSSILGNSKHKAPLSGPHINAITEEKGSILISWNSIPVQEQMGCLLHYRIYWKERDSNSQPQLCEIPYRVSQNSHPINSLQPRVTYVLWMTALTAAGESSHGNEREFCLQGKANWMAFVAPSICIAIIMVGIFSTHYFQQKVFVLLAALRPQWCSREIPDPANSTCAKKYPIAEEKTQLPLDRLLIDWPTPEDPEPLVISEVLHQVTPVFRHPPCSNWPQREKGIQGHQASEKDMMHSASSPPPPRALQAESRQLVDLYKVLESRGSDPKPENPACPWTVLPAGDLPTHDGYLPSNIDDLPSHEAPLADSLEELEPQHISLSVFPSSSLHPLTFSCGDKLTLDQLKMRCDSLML
Binder,binding result (CD8 on CD8+ T cells),"IFN-γ release, % of rIL-12, activated CD8+ T cells [1] [%]","IFN-γ release, % of rIL-23, activated CD8+ T cells (IL-23 receptor complex) [%]"
Fab-IL-12(F60A)-Fc-CD4 Ab (other) heavy 1: QVQLQQSGPEVVKPGASVKMSCKASGYTFTSYVIHWVRQKPGQGLDWIGYINPYNDGTDYDEKFKGKATLTSDTSTSTAYMELSSLRSEDTAVYYCAREKDNYATGAWFAYWGQGTLVTVSSASTKGPSVFPLAPSSKSTSGGTAALGCLVKDYFPEPVTVSWNSGALTSGVHTFPAVLQSSGLYSLSSVVTVPSSSLGTQTYICNVNHKPSNTKVDKKVEPKSCDKPGSGIWELKKDVYVVELDWYPDAPGEMVVLTCDTPEEDGITWTLDQSSEVLGSGKTLTIQVKEAGDAGQYTCHKGGEVLSHSLLLLHKKEDGIWSTDILKDQKEPKNKTFLRCEAKNYSGRFTCWWLTTISTDLTFSVKSSRGSSDPQGVTCGAATLSAERVRGDNKEYEYSVECQEDSACPAAEESLPIEVMVDAVHKLKYENYTSSFFIRDIIKPDPPKNLQLKPLKNSRQVEVSWEYPDTWSTPHSYFSLTFCVQVQGKSKREKKDRVFTDKTSATVICRKNASISVRAQDRYYSSSWSEWASVPCSGGGGSGGGGSGGGGSGGGGSGRNLPVATPDPGMFPCLHHSQNLLRAVSNMLQKARQTLEFYPCTSEEIDHEDITKDKTSTVEACLPLELTKNESCLNSRETSFITNGSCLASRKTSFMMALCLSSIYEDLKMYQVEFKTMNAKLLMDPKRQIFLDQNMLAVIDELMQALNFNSETVPQKSSLEEPDFYKTKIKLCILLHAFRIRAVTIDRVMSYLNASDKTHTCPPCPAPEDEGGPSVFLFPPKPKDTLMISRTPEVTCVVVDVSHEDPEVKFNWYVDGVEVHNAKTKPREEQYNSTYRVVSVLTVLHQDWLNGKEYKCKVSNKALPAPIEKTISKAKGQPREPQVYVYPPSREEMTKNQVSLTCLVKGFYPSDIAVEWESNGQPENNYKTTPPVLDEDGSFALVSKLTVDKSRWQQGNVFSCSVMHEALHNHYTQKSLSLSPGK heavy 2: QVQLQQSGPEVVKPGASVKMSCKASGYTFTSYVIHWVRQKPGQGLDWIGYINPYNDGTDYDEKFKGKATLTSDTSTSTAYMELSSLRSEDTAVYYCAREKDNYATGAWFAYWGQGTLVTVSSASTKGPSVFPLAPSSKSTSGGTAALGCLVKDYFPEPVTVSWNSGALTSGVHTFPAVLQSSGLYSLSSVVTVPSSSLGTQTYICNVNHKPSNTKVDKKVEPKSCDKTHTCPPCPAPEKKGGPSVFLFPPKPKDTLMISRTPEVTCVVVDVSHEDPEVKFNWYVDGVEVHNAKTKPREEQYNSTYRVVSVLTVLHQDWLNGKEYKCKVSNKALPAPIEKTISKAKGQPREPQVYVLPPSREEMTKNQVSLLCLVKGFYPSDIAVEWESNGQPENRYMTWPPVLDSDGSFFLYSKLTVDKSRWQQGNVFSCSVMHEALHNHYTQKSLSLSPGK light: not shown,no binding,1.5,–
Fab-IL-23(WT)-Fc-CD4 Ab (other) heavy 1: QVQLQQSGPEVVKPGASVKMSCKASGYTFTSYVIHWVRQKPGQGLDWIGYINPYNDGTDYDEKFKGKATLTSDTSTSTAYMELSSLRSEDTAVYYCAREKDNYATGAWFAYWGQGTLVTVSSASTKGPSVFPLAPSSKSTSGGTAALGCLVKDYFPEPVTVSWNSGALTSGVHTFPAVLQSSGLYSLSSVVTVPSSSLGTQTYICNVNHKPSNTKVDKKVEPKSCDKPGSGIWELKKDVYVVELDWYPDAPGEMVVLTCDTPEEDGITWTLDQSSEVLGSGKTLTIQVKEFGDAGQYTCHKGGEVLSHSLLLLHKKEDGIWSTDILKDQKEPKNKTFLRCEAKNYSGRFTCWWLTTISTDLTFSVKSSRGSSDPQGVTCGAATLSAERVRGDNKEYEYSVECQEDSACPAAEESLPIEVMVDAVHKLKYENYTSSFFIRDIIKPDPPKNLQLKPLKNSRQVEVSWEYPDTWSTPHSYFSLTFCVQVQGKSKREKKDRVFTDKTSATVICRKNASISVRAQDRYYSSSWSEWASVPCSGGGGSGGGGSGGGGSGGGGSGRAVPGGSSPAWTQCQQLSQKLCTLAWSAHPLVGHMDLREEGDEETTNDVPHIQCGDGCDPQGLRDNSQFCLQRIHQGLIFYEKLLGSDIFTGEPSLLPDSPVGQLHASLLGLSQLLQPEGHHWETQQIPSLSPSQPWQRLLLRFKILRSLQAFVAVAARVFAHGAATLSPDKTHTCPPCPAPEDEGGPSVFLFPPKPKDTLMISRTPEVTCVVVDVSHEDPEVKFNWYVDGVEVHNAKTKPREEQYNSTYRVVSVLTVLHQDWLNGKEYKCKVSNKALPAPIEKTISKAKGQPREPQVYVYPPSREEMTKNQVSLTCLVKGFYPSDIAVEWESNGQPENNYKTTPPVLDEDGSFALVSKLTVDKSRWQQGNVFSCSVMHEALHNHYTQKSLSLSPGK heavy 2: QVQLQQSGPEVVKPGASVKMSCKASGYTFTSYVIHWVRQKPGQGLDWIGYINPYNDGTDYDEKFKGKATLTSDTSTSTAYMELSSLRSEDTAVYYCAREKDNYATGAWFAYWGQGTLVTVSSASTKGPSVFPLAPSSKSTSGGTAALGCLVKDYFPEPVTVSWNSGALTSGVHTFPAVLQSSGLYSLSSVVTVPSSSLGTQTYICNVNHKPSNTKVDKKVEPKSCDKTHTCPPCPAPEKKGGPSVFLFPPKPKDTLMISRTPEVTCVVVDVSHEDPEVKFNWYVDGVEVHNAKTKPREEQYNSTYRVVSVLTVLHQDWLNGKEYKCKVSNKALPAPIEKTISKAKGQPREPQVYVLPPSREEMTKNQVSLLCLVKGFYPSDIAVEWESNGQPENRYMTWPPVLDSDGSFFLYSKLTVDKSRWQQGNVFSCSVMHEALHNHYTQKSLSLSPGK light: not shown,no binding,–,21
Fab-IL-23(F60A)-Fc-CD4 Ab (other) heavy 1: QVQLQQSGPEVVKPGASVKMSCKASGYTFTSYVIHWVRQKPGQGLDWIGYINPYNDGTDYDEKFKGKATLTSDTSTSTAYMELSSLRSEDTAVYYCAREKDNYATGAWFAYWGQGTLVTVSSASTKGPSVFPLAPSSKSTSGGTAALGCLVKDYFPEPVTVSWNSGALTSGVHTFPAVLQSSGLYSLSSVVTVPSSSLGTQTYICNVNHKPSNTKVDKKVEPKSCDKPGSGIWELKKDVYVVELDWYPDAPGEMVVLTCDTPEEDGITWTLDQSSEVLGSGKTLTIQVKEAGDAGQYTCHKGGEVLSHSLLLLHKKEDGIWSTDILKDQKEPKNKTFLRCEAKNYSGRFTCWWLTTISTDLTFSVKSSRGSSDPQGVTCGAATLSAERVRGDNKEYEYSVECQEDSACPAAEESLPIEVMVDAVHKLKYENYTSSFFIRDIIKPDPPKNLQLKPLKNSRQVEVSWEYPDTWSTPHSYFSLTFCVQVQGKSKREKKDRVFTDKTSATVICRKNASISVRAQDRYYSSSWSEWASVPCSGGGGSGGGGSGGGGSGGGGSGRAVPGGSSPAWTQCQQLSQKLCTLAWSAHPLVGHMDLREEGDEETTNDVPHIQCGDGCDPQGLRDNSQFCLQRIHQGLIFYEKLLGSDIFTGEPSLLPDSPVGQLHASLLGLSQLLQPEGHHWETQQIPSLSPSQPWQRLLLRFKILRSLQAFVAVAARVFAHGAATLSPDKTHTCPPCPAPEDEGGPSVFLFPPKPKDTLMISRTPEVTCVVVDVSHEDPEVKFNWYVDGVEVHNAKTKPREEQYNSTYRVVSVLTVLHQDWLNGKEYKCKVSNKALPAPIEKTISKAKGQPREPQVYVYPPSREEMTKNQVSLTCLVKGFYPSDIAVEWESNGQPENNYKTTPPVLDEDGSFALVSKLTVDKSRWQQGNVFSCSVMHEALHNHYTQKSLSLSPGK heavy 2: QVQLQQSGPEVVKPGASVKMSCKASGYTFTSYVIHWVRQKPGQGLDWIGYINPYNDGTDYDEKFKGKATLTSDTSTSTAYMELSSLRSEDTAVYYCAREKDNYATGAWFAYWGQGTLVTVSSASTKGPSVFPLAPSSKSTSGGTAALGCLVKDYFPEPVTVSWNSGALTSGVHTFPAVLQSSGLYSLSSVVTVPSSSLGTQTYICNVNHKPSNTKVDKKVEPKSCDKTHTCPPCPAPEKKGGPSVFLFPPKPKDTLMISRTPEVTCVVVDVSHEDPEVKFNWYVDGVEVHNAKTKPREEQYNSTYRVVSVLTVLHQDWLNGKEYKCKVSNKALPAPIEKTISKAKGQPREPQVYVLPPSREEMTKNQVSLLCLVKGFYPSDIAVEWESNGQPENRYMTWPPVLDSDGSFFLYSKLTVDKSRWQQGNVFSCSVMHEALHNHYTQKSLSLSPGK light: not shown,–,–,1.5
Fab-IL-23(E59A)-Fc-CD4 Ab (other) heavy 1: QVQLQQSGPEVVKPGASVKMSCKASGYTFTSYVIHWVRQKPGQGLDWIGYINPYNDGTDYDEKFKGKATLTSDTSTSTAYMELSSLRSEDTAVYYCAREKDNYATGAWFAYWGQGTLVTVSSASTKGPSVFPLAPSSKSTSGGTAALGCLVKDYFPEPVTVSWNSGALTSGVHTFPAVLQSSGLYSLSSVVTVPSSSLGTQTYICNVNHKPSNTKVDKKVEPKSCDKPGSGIWELKKDVYVVELDWYPDAPGEMVVLTCDTPEEDGITWTLDQSSEVLGSGKTLTIQVKAFGDAGQYTCHKGGEVLSHSLLLLHKKEDGIWSTDILKDQKEPKNKTFLRCEAKNYSGRFTCWWLTTISTDLTFSVKSSRGSSDPQGVTCGAATLSAERVRGDNKEYEYSVECQEDSACPAAEESLPIEVMVDAVHKLKYENYTSSFFIRDIIKPDPPKNLQLKPLKNSRQVEVSWEYPDTWSTPHSYFSLTFCVQVQGKSKREKKDRVFTDKTSATVICRKNASISVRAQDRYYSSSWSEWASVPCSGGGGSGGGGSGGGGSGGGGSGRAVPGGSSPAWTQCQQLSQKLCTLAWSAHPLVGHMDLREEGDEETTNDVPHIQCGDGCDPQGLRDNSQFCLQRIHQGLIFYEKLLGSDIFTGEPSLLPDSPVGQLHASLLGLSQLLQPEGHHWETQQIPSLSPSQPWQRLLLRFKILRSLQAFVAVAARVFAHGAATLSPDKTHTCPPCPAPEDEGGPSVFLFPPKPKDTLMISRTPEVTCVVVDVSHEDPEVKFNWYVDGVEVHNAKTKPREEQYNSTYRVVSVLTVLHQDWLNGKEYKCKVSNKALPAPIEKTISKAKGQPREPQVYVYPPSREEMTKNQVSLTCLVKGFYPSDIAVEWESNGQPENNYKTTPPVLDEDGSFALVSKLTVDKSRWQQGNVFSCSVMHEALHNHYTQKSLSLSPGK heavy 2: QVQLQQSGPEVVKPGASVKMSCKASGYTFTSYVIHWVRQKPGQGLDWIGYINPYNDGTDYDEKFKGKATLTSDTSTSTAYMELSSLRSEDTAVYYCAREKDNYATGAWFAYWGQGTLVTVSSASTKGPSVFPLAPSSKSTSGGTAALGCLVKDYFPEPVTVSWNSGALTSGVHTFPAVLQSSGLYSLSSVVTVPSSSLGTQTYICNVNHKPSNTKVDKKVEPKSCDKTHTCPPCPAPEKKGGPSVFLFPPKPKDTLMISRTPEVTCVVVDVSHEDPEVKFNWYVDGVEVHNAKTKPREEQYNSTYRVVSVLTVLHQDWLNGKEYKCKVSNKALPAPIEKTISKAKGQPREPQVYVLPPSREEMTKNQVSLLCLVKGFYPSDIAVEWESNGQPENRYMTWPPVLDSDGSFFLYSKLTVDKSRWQQGNVFSCSVMHEALHNHYTQKSLSLSPGK light: not shown,–,–,2
